Assay: soluble on expression in E. coli; label from the status in PepcDB or PDB records

Row | Sequence | soluble on expression in E. coli
1 | MSLNKVITKKQTIPAFFKGNAPYIFAHRGGMALRPEQTQLAFDYAKQLGVDGFETDVRLTKDQQLIVFHDATVDRTTNGSGKVSAHTLAELKKLDAAYHFKDINGLTPYRGHAHTTILTFDELLKQYPDMYINVDLKDAPESYEGSIAPQIMFDTIAENQAFDRVLVTSFYKEQIVRFNKIAQGSVAIGASQQEVTEAFLKYHLLGGRYYQPLAQTFQMPTHFKGIDLTSSRFIKWLNDMNIIPGYYGVNSIDLMNDLYQKGAHTIVTDRPDLAQQFKQTIPNKEGHHHHHH | soluble
2 | MSSIRVVALDWRYEEILHALGITPVGIVEIGKSKEPQTLKGELEGVTSVGQAKQPNLEVIQSLEPDLILASPTRQAAIMDQLKEIAPTHAYGDTSYTEVLDAMDDIATKVGAEDKAKEVRTRIESKIAQAKNKVEPGTRTALIGWSKNTLYTWVKDSFAGSLLTAAGYEYGYDGEKSAIESKTDVAELTGDKLPEMKLDVMYLYNDIEGFRSSPYADVVSNIVDVEQDTWSRSRGPLAAEAMLDQIINSLEHHHHHH | soluble
3 | MGSDKIHHHHHHMSHITDIAYKNWIVELKSKIRSSQVKASLAINAALIEFYWDLGKMIAEKQTAWGTKFIEQVSHDLQVEFPEMKGLSTTNLKYCRSFYLFYQNAIGQQAVAQLPVTPNVQQGVGEISQQSVDQLQHIEKQVNVFGQQFVAQIPWGHNILIFTKSKSYTEAQFYLQQTISNAWGRETLALQIKSQLFERQGKAITNFKQTLPEPLSDLAQQTLKDPYNFDFVNMAGTMKEKDLEKQLITHISKFLLELGKGFAFVGQQYHLEIAENDYYLDLLFYHIKLKCYVVIELKNTKFVPEYTGKMNFYLSAVDTLLKQDDDKPTIGILLCRDKNNIEAEFALRDINKPIGISEFSFTEILPENLKSSLPTVEELENELQHLTNDTDEN | not soluble
4 | MIKQIGTVAVYVEDQQKAKQFWTEKVGFDIAADHPMGPEASWLEVAPKGAETRLVIYPKAMMKGSEQMKASIVFECEDIFGTYEKMKTNGVEFLGEPNQMEWGTFVQFKDEDGNVFLLKE | not soluble
5 | MPLRILHTSDWHLGRSLFGRSRLHEFEAFLDWLAGTVESRGIELLVVAGDIFDTTTPGNATQKLYYQFLNRIALTPGSPCRHVVITSGNHDSPTFLDAPKELLRAFDVHVLGATTGDPADEVRLLRDRQGSPEAIVCAVPFLRDRDIRTVEPGESLEDKIRKLSDGVSLHYAEVARIAAERRRSLGADIPVIAMGHLFTAGCVTVEEDGVREIYAGALSIVCSTAFPPVFDYVALGHMHVPQRVDKTEHMRYCGSPIPMGFGEAKQQKLVLQVDFEGREPTVTEIEVPCFQPLERLAGSLDELSAAIAALRSAGSNAWLEIDYRGDEAPATVQEAMEQAVAGSLLEIRRIRNNRPLQQALRHSAANETLQQLDPEAVFNRCLEAYGTDESLRPALVESYREVLRSIREEDVMAEKEGKS | not soluble
6 | MMPSQITRSSHSSLPEVAPASGDATGVSEQTPQQARTVAFFSSGELAVAFGRTSAAPEQDSVRLLSALQRELDKQHPSWHTVAQLCQSLAEVGTTEQGWHQLASEDQLPALRELLDRCTHRLADMPAAHASHDSLSQACEGLRTARLHQSVARLTARPSSLARAMADLLTLTHLDPETLGAEPPVISSYTLFSHFVRTAKQRTADLNDSLQRQPDAVVSLLRSHADTLNDLEMLPGALQALTENCQDAPARNELRELAEVAGALLQLLLEHDLLPRLEEISIEPGEA | not soluble
7 | MLPEKSEIVVIGGGIVGVTIAHELAKRGEEVTVIEKRFIGSGSTFRCGTGIRQQFNDEANVRVMKRSVELWKKYSEEYGFSFKQTGYLFLLYDDEEVKTFKRNIEIQNKFGVPTKLITPEEAKEIVPLLDISEVIAASWNPTDGKADPFEATTAFAVKAKEYGAKLLEYTEVKGFLIENNEIKGVKTNKGIIKTGIVVNATNAWANLINAMAGIKTKIPIEPYKHQAVITQPIKRGTINPMVISFKYGHAYLTQTFHGGIIGGIGYEIGPTYDLTPTYEFLREVSYYFTKIIPALKNLLILRTWAGYYAKTPDSNPAIGRIEELNDYYIAAGFSGHGFMMAPAVGEMVAELITKGKTKLPVEWYDPYRFERGELRTAALQMG | soluble

— the DeepSol protein solubility set
